Reference: paper PMC6770577, “TRPM6 N-Terminal CaM- and S100A1-Binding Domains” (International Journal of Molecular Sciences, 2019)

T1: S100A1 (Homo sapiens), P23297
T1 chain: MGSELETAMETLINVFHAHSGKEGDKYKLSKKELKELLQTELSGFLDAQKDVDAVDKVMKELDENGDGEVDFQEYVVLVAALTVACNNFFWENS


Target: T1, S100A1 (Homo sapiens), P23297
Test: steady-state fluorescence anisotropy
Details: modification not given

Kd | Binder
50.2 µM | LIGRAYRSNYTAAHFR [TRPM6np K532A/R531A 520-535, Q9BX84]
81.8 µM | LIGRAYRSNYTAAHFA [TRPM6np K532A/R531A/R535A 520-535, Q9BX84]
24.8 µM | LIGRAYRSNYTRAHFR [TRPM6np K532A 520-535, Q9BX84]
130 µM | LIGRAYASNYTAAHFA [TRPM6np K532A/R531A/R535A/R526A 520-535, Q9BX84]
